Assays:
[1] = target: T1, Full length Trio (RhoA) (Homo sapiens, UniProt O75962); experiment: Yeast Exchange Assay (YEA), full length Trio on RhoA; format: cell-based; design: key: “+ +” represents a slight activation of the reporter gene; “+ + + +” represents a strong activation of the reporter gene; “−” represents no activation of the reporter gene; details: +TRIPα (−TRIPα: −)
T1 construct: Full length Trio was introduced into the YEA; expressed in transfected cells; host or cells: yeast strain TAT7
Excerpt: The wild type GTPase is fused to the LexA DNA binding domain (Matchmaker GAL4 two-hybrid, Clontech Laboratories, Inc., USA) and the effector to the […] (Matchmaker GAL4 two-hybrid, Clontech, Inc., USA). Under these conditions, no binding occurs in the TAT7 strain (De Toledo et al., 2000). Upon addition of a third plasmid expressing the GEF, the GTPase gets activated and binds to its effector, thus leading to the transactivation of the reporter gene LacZ.
Full length Trio was introduced into the YEA and tested for its ability to activate RhoA and RhoG respectively, in the presence or absence of TRIPα. The table below summarizes the effect of TRIPα on Trio as schematized in this Figure.
In order to better characterise the effect of TRIAPα on the Trio full length RhoGEF activity, the yeast exchange assay (YEA) was used, which is a quick and quantitative test derived from the classical two-hybrid system allowing to measure Rho-GEF activity and specificity (De Toledo et al., 2000). This functional assay is based on the fact that the GTPase binds to its effector only if it is activated by a RhoGEF. Briefly, yeasts are transformed with the GTPase fused to the LexA binding domain (LexA), and its effector to the GAL-4 Activating Domain (GAD), and with the adequate Rho-GEF partner in the yeast strain TAT7 (FIG. 7). […]

[2] = test system: TrioGEFD2-mediated RhoA activation; experiment: RhoA activity assay (Rhotekin RBD pull-down) in COS cells; format: cell-based; details: COS cells co-transfected, 48 hours
Excerpt: FIG. 5B represents the inhibitory effect of TRIPα on TrioGEFD2-mediated RhoA activation in intact cells using the RhoA activity assay, COS cells were transfected with GFP-TRIPα (left line), TrioGEFD2 (middle line) or both (right line). Cell lysates were subjected to GST-pulldown using the recombinant RBD (RhoA binding domain) fragment of the RhoA-specific effector Rhotekin. The presence of the GTP-bound form of RhoA and of the total RhoA protein was detected using a monoclonal anti-RhoA antibody and is represented in the upper two panels. GFP-TRIPα and TrioGEFD2 expression in the cell lysates is shown in the lower two panels.
Quantification of the RhoA activity assay is shown in the right part of the figure. The y-axis represents the ratio between active RhoA and total RhoA, in arbitrary units.
The Inventors then wanted to assess the inhibition by TRIPα of TrioGEFD2-mediated activation of endogenous RhoA in intact cells. To do so, the RhoA activity assay was used to detect the active GTP-bound form of RhoA (Ren et al., 1999). Briefly, COS cells were transfected as described in FIG. 5A with TrioGEFD2 in absence or in the presence of GFP-TRIAPα. 48 hours after transfection, cell lysates were subjected to GST-pull down using 20 μg of the recombinant RBD (RhoA binding domain) fragment of the RhoA-specific effector Rhotekin, that binds only to the activated GTP-bound form of RhoA.

activation of the reporter gene by full length Trio, RhoA [1]: −
Sequence: AREGADGAICGYNLATLVMLGPSERVFCPLCEPCSSDIYELM [TRIPα, 42-amino acid peptide corresponding to the variable region of TRIAPα]
Inhibition of TrioGEFD2-mediated RhoA activation in intact cells [2]: able to inhibit TrioGEFD2-mediated RhoA activation

Reference: patent US8088892B2, “Inhibitors of proteins from the Rho-GEF family” (Centre National de la Recherche Scientifique (C.N.R.S.), priority 2002, dated 2012)
